# Read-outs that look alike come from different tables or passages of the source.
# T1: Human CD1d on cells (human, UniProt P15813 20-335)
# T1 sequence (looked up): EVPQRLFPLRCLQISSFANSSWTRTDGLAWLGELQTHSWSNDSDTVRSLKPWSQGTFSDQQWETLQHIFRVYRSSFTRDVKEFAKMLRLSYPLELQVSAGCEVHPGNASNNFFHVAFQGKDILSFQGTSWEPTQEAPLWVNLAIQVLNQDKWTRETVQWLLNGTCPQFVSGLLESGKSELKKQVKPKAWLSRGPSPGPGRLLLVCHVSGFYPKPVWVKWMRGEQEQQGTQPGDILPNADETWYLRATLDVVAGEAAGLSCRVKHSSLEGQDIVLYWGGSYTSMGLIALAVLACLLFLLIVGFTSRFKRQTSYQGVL
# Legend:
# Human CD1d on cells [1] = biological target: T1, Human CD1d on cells; test: cell-based or functional assay
# Human CD1d on cells [2] = biological target: T1, Human CD1d on cells; test: cell-based or functional assay; remark: listed apart in the source
# Human CD1d/β2M [3] = biological target: T2, Human CD1d/β2M (human, UniProt P15813 20-301; P61769 21-119); test: SPR
# T2 construct: also called hCD1d; recombinant human CD1d
# Human CD1d on cells [4] = biological target: T1, Human CD1d on cells; test: cell-based or functional assay; remark: listed apart in the source
# Human CD1d on cells [5] = biological target: T1, Human CD1d on cells; test: cell-based or functional assay; remark: listed apart in the source
# Human CD1d/β2M [6] = biological target: T2, Human CD1d/β2M; test: SPR, transfection supernatant
binder,measurement,setting,value
"401.11.156 (antibody, IgG4, V domains shown, IgG4 (S228P)) VH: QVQLVGSGGGLVKPGRSLRLSCAASGFTFDDYAMHWVRQAPGKGLEWVATIIWNSAIIGYADSVKGRFIVSRDNAKNSLYLQMNSLRAEDTALYYCAKDMCSSGGCPDGYFDSWGQGTLVTVSS VL: DIQMTQSPSSVSASVGDRVTITCRASQHISSWLAWYQQKPGKAPKLLIYAASSLQSGVSSRFSGSGSGTDFTLTISSLQPEDFATYYCQQANRFPLTFGGGTKLEIKR",NKT IFN-γ EC50 (THP-1),Human CD1d on cells [1],5.81 ng/mL
same,NKT IL-4 EC50 (THP-1),Human CD1d on cells [1],1.99 ng/mL
same,NKT IL-5 EC50 (THP-1),Human CD1d on cells [1],4.45 ng/mL
same,NKT IL-13 EC50 (THP-1),Human CD1d on cells [1],6.91 ng/mL
same,NKT TNF EC50 (THP-1),Human CD1d on cells [1],3.85 ng/mL
same,NKT IFN-γ EC50 (moDC),Human CD1d on cells [2],7.76 ng/mL
same,NKT IL-4 EC50 (moDC),Human CD1d on cells [2],2.72 ng/mL
same,NKT IL-5 EC50 (moDC),Human CD1d on cells [2],5.86 ng/mL
same,NKT IL-13 EC50 (moDC),Human CD1d on cells [2],9.53 ng/mL
same,NKT TNF EC50 (moDC),Human CD1d on cells [2],4.51 ng/mL
same,Kd,Human CD1d/β2M [3],0.223 nM
same,"fold improvement against 401.11 (IFN-γ, moDC)",Human CD1d on cells [4],~5.1 fold
same,NKT IL-4 EC50 (moDC),Human CD1d on cells [5],1.95 ng/mL
same,NKT IL-13 EC50 (moDC),Human CD1d on cells [5],5.22 ng/mL
"401.11.19 (antibody, V domains shown) VH: QVQLVGSGGGLVKPGRSLRLSCAASGFTFDDYAMHWVRQAPGKGLEWVATIIWNSAIIGYADSVKGRFIVSRDNAKNSLYLQMNSLRAEDMALYYCAKDMCSSSGCPDGYFDSWGQGTLVTVSS VL: DIQMTQSPSSVSASVGDRVTITCRASQHISSWLAWYQQKPGKAPKLLIYAASSLQSGVSSRFSGSGSGTDFTLTISSLQPEDFATYYCQQANRFPLTFGGGTKLEIK",Kd,Human CD1d/β2M [6],0.667 nM
"401.11.15 (antibody, V domains shown) VH: EVQLVESGGGLVKPGRSLRLSCAASGFTFDDYAMHWVRQAPGKGLEWVATIIWNSAIIGYADSVKGRFIVSRDNAKNSLYLQMNSLRAEDMALYYCAKDMCSSSGCPDGYFDSWGQGTLVTVSS VL: DIQMTQSPSSVSASVGDRVTITCRASQHISSWLAWYQQKPGKAPNLLIYAASSLQSGVSSRFSGSGSGTDFTLTISSLQPEDFATYYCQQANRFPLTFGGGTKLEIK",Kd,Human CD1d/β2M [6],0.507 nM
"401.11.20 (antibody, V domains shown) VH: QVQLVGSGGGLVKPGRSLRLSCAASGFTFDDYAMHWVRQAPGKGLEWVATIIWNSAIIGYADSVKGRFIVSRDNAKNSLYLQMNSLRAEDMALYYCAKDMCSSSGCPDGYFDSWGQGTLVTVSS VL: DIQMTQSPSSVSASVGDRVTITCRASQHISSWLAWYQQKPGKAPNLLIYAASSLQSGVPSRFSGSGSGTDFTLTISSLQPEDFATYYCQQANRFPLTFGGGTKLEIK",Kd,Human CD1d/β2M [6],0.977 nM
"401.11.16 (antibody, V domains shown) VH: EVQLVESGGGLVQPGRSLRLSCAASGFTFDDYAMHWVRQAPGKGLEWVATIIWNSAIIGYADSVKGRFIVSRDNAKNSLYLQMNSLRAEDMALYYCAKDMCSSSGCPDGYFDSWGQGTLVTVSS VL: DIQMTQSPSSVSASVGDRVTITCRASQHISSWLAWYQQKPGKAPNLLIYAASSLQSGVSSRFSGSGSGTDFTLTISSLQPEDFATYYCQQANRFPLTFGGGTKLEIK",binding result,Human CD1d/β2M [6],no binding
"401.11.18 (antibody, V domains shown) VH: QVQLVGSGGGLVKPGRSLRLSCAASGFTFDDYAMHWVRQAPGKGLEWVATIIWNSAIIGYADSVKGRFIVSRDNAKNSLYLQMNSLRAEDTALYYCAKDMCSSSGCPDGYFDSWGQGTLVTVSS VL: DIQMTQSPSSVSASVGDRVTITCRASQHISSWLAWYQQKPGKAPNLLIYAASSLQSGVSSRFSGSGSGTDFTLTISSLQPEDFATYYCQQANRFPLTFGGGTKLEIK",Kd,Human CD1d/β2M [6],9.97 nM
"401.11.21 (antibody, V domains shown) VH: EVQLVESGGGLVKPGRSLRLSCAASGFTFDDYAMHWVRQAPGKGLEWVATIIWNSAIIGYADSVKGRFIVSRDNAKNSLYLQMNSLRAEDMALYYCAKDMCSSSGCPDGYFDSWGQGTLVTVSS VL: DIQMTQSPSSVSASVGDRVTITCRASQHISSWLAWYQQKPGKAPKLLIYAASSLQSGVSSRFSGSGSGTDFTLTISSLQPEDFATYYCQQANRFPLTFGGGTKLEIK",Kd,Human CD1d/β2M [6],0.951 nM
"401.11.22 (antibody, V domains shown) VH: EVQLVESGGGLVQPGRSLRLSCAASGFTFDDYAMHWVRQAPGKGLEWVATIIWNSAIIGYADSVKGRFIVSRDNAKNSLYLQMNSLRAEDMALYYCAKDMCSSSGCPDGYFDSWGQGTLVTVSS VL: DIQMTQSPSSVSASVGDRVTITCRASQHISSWLAWYQQKPGKAPKLLIYAASSLQSGVSSRFSGSGSGTDFTLTISSLQPEDFATYYCQQANRFPLTFGGGTKLEIK",Kd,Human CD1d/β2M [6],0.754 nM

# From patent US20140286957A1 (Teva, published 2014)
